PMC8333356 (Nature Communications, 2021)

B1: Nb21 (VHH)
VHH: QVQLVESGGGLVQAGGSLRLSCAVSGLGAHRVGWFRRAPGKEREFVAAIGANGGNTNYLDSVKGRFTISRDNAKNTIYLQMNSLKPQDTAVYYCAARDIETAEYTYWGQGTQVTVSS
notes: Cloned in pET-21b(+); also called class I Nb; source: E. coli BL21 (DE3), purified (cobalt resin, Superdex 75)
B2: Nb34 (VHH)
VHH: DVQLVESGGGLVQAGGSLRLSCAASGFTFSNYVMYWGRQAPGKGREWVSGIDSDGSDTAYASSVKGRFTISRDNAKNTLYLQMNNLKPEDTALYYCVKSKDPYGSPWTRSEFDDYWGQGTQVTVSS
notes: Cloned in pET-21b(+)
B3: Nb95 (VHH)
VHH: QVQLVESGGGLVQAGGSLRLSCAASGRTFSSYSMGWFRQAQGKEREFVATINGNGRDTYYTNSVKGRFTISRDDATNTVYLQMNSLKPEDTAIYYCAADKDVYYGYTSFPNEYEYWGQGTQVTVSS
notes: Cloned in pET-21b(+)
B4: Nb17 (VHH)
VHH: HVQLVESGGGLVQAGGSLRLSCAASGSIFSSNAMSWYRQAPGKQRELVASITSGGNADYADSVKGRFTISRDKNTVYPEMSSLKPADTAVYYCHAVGQEASAYAPRAYWGQGTQVTVSS
notes: Cloned in pET-21b(+); also called class III Nb; source: E. coli BL21 (DE3), purified (cobalt resin, Superdex 75)

The binders below were run against receptor binding domain (RBD) of SARS-CoV-2 spike (SARS-CoV-2 Wuhan-Hu-1, UniProt P0DTC2) (assay: ELISA). Details: both partners purified.
B1: binds. B2: binds. B3: binds. B4: binds.
